Test results from article PMC8977243 (Journal of molecular biology, 2022).

B2: His6-ERK2 (enzyme, rat, UniProt P63086 1-358, looked up)
chain: MAAAAAAGPEMVRGQVFDVGPRYTNLSYIGEGAYGMVCSAYDNLNKVRVAIKKISPFEHQTYCQRTLREIKILLRFRHENIIGINDIIRAPTIEQMKDVYIVQDLMETDLYKLLKTQHLSNDHICYFLYQILRGLKYIHSANVLHRDLKPSNLLLNTTCDLKICDFGLARVADPDHDHTGFLTEYVATRWYRAPEIMLNSKGYTKSIDIWSVGCILAEMLSNRPIFPGKHYLDQLNHILGILGSPSQEDLNCIINLKARNYLLSLPHKNKVPWNRLFPNADSKALDLLDKMLTFNPHKRIEVEQALAHPYLEQYYDPSDEPIAEAPFKFDMELDDLPKEKLKELIFEETARFQPGYRS

Tests used:
[1] = biological target: B2; experiment: peptide or protein array
[2] = biological target: MBP-arrestin-2 (bovine, UniProt P17870 1-418); experiment: pull-down

B1: arrestin-2-derived peptide CKVYTLTPFLANNRE (peptide)
peptide: CKVYTLTPFLANNRE
[1]
  binding result: binds

## B2
[2]
  binding result: binds
